Test results taken from patent publication US20210130452A1 (Merck KGaA, published 2021).
Where a chain is given by its changes, count along the chain named.

T1: human IL-17F (human, UniProt Q96PD4 31-163, biotinylated with Sulfo-NHS-LC-Biotin in the AlphaScreen assays only)
T1 construct: also called hIL-17F; recombinant human IL-17F
T1 sequence: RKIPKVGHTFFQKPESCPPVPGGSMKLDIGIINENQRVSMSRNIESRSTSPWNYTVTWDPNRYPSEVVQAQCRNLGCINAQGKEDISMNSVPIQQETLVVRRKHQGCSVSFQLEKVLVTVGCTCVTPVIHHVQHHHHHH

T2: human IL-17D (human, UniProt Q8TAD2 18-202, limits assumed)
T2 construct: expressed in E. coli; also called hIL-17D
T2 sequence (looked up): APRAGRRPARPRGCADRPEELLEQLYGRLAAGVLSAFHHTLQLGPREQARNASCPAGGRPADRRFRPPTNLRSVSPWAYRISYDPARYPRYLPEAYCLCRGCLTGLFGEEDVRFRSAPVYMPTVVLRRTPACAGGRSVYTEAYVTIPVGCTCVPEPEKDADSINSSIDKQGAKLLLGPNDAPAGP

T3: human IL-17E (human, UniProt Q9H293 33-177)
T3 construct: expressed in E. coli; also called hIL-17E
T3 sequence (looked up): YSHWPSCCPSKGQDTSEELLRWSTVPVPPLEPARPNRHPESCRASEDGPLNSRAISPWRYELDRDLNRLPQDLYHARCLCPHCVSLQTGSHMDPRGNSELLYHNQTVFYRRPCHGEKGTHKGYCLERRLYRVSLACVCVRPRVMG

T4: human IL-17C (human, UniProt Q9P0M4 19-197)
T4 construct: expressed in E. coli; also called hIL-17C
T4 sequence (looked up): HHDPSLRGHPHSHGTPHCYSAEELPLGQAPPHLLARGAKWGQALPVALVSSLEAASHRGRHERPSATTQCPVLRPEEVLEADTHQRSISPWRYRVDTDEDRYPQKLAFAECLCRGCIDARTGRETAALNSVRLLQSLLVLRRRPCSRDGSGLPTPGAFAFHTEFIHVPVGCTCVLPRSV

T5: human IL-17B (human, UniProt Q9UHF5 21-180)
T5 construct: expressed in E. coli; also called hIL-17B
T5 sequence (looked up): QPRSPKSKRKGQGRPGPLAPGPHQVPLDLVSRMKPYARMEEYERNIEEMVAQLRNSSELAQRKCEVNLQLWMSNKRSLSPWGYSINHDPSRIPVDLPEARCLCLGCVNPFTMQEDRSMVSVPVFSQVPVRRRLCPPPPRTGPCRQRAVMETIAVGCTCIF

T6: mouse IL-17F (mouse, UniProt Q7TNI7 29-161)
T6 sequence (looked up): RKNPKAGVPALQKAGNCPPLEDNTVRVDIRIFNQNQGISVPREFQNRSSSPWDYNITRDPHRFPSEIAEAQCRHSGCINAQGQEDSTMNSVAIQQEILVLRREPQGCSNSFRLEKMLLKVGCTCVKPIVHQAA

T7: rat IL-17F (rat, UniProt Q5BJ95 29-161)
T7 sequence (looked up): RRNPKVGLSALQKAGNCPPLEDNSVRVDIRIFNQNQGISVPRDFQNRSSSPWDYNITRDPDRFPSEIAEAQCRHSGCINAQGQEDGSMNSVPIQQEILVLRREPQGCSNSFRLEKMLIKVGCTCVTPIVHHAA

B1: 02A10 (VHH)
VHH: EVQLVESGGGLVQPGGSLRLSCAASGFALGYYAIGWFRQAPGKEREGVSCDSSSDGRTYYGDSVKGRFTISTDSAKNTVYLQMNSLKPEDTAVYYCATCTDFEYDYWGQGTQVTVSS
notes: Class 2 Nanobody (anti-IL-17A and IL-17A/F); not shown: c-myc, His6 tag
B2: 04B10 (VHH)
VHH: EVQLVESGGGLVQAGGSQSLSCVASGTIVNINVMGWYRQAPGKQRELVALITSGGGTTYGDSVKGRFTISIDNAKNTVILQMNSLEAEDTAVYYCAAEIGYYSGGTYFSSEAHWGQGTQVTVSS
notes: as for B1
B3: 04F09 (VHH)
VHH: EVQLVESGGGLVQPGGSLRLSCAASGRTFSTHAMGWFRQAPGKERDFVAAIRWSDGSSFYADSVKGRFTISRDNAKNAVYLQSNSLKSEDTAVYVCYADVEGPTALHKYWGRGTQVTVSS
notes: as for B1
B4: 07B09 (VHH)
VHH: EVQLVESGGGLVQAGGSLRLSCGASGGTFSSYATGWFRQAPGKEREFVAVLRWSDGHTAYADSVKGRFTISRDGAKNTMYLQMSSLKPEDTAIYYCTTATRPGEWDYWGQGTQVTVSS
notes: Class 3
B5: 24G10 (VHH)
VHH: B4 VHH with S25A, L51F, G56S, M79L
notes: Class 3
B6: 08H01 (VHH)
VHH: B4 VHH with G56S, K65E, M79V, A99G, D106H
notes: Class 3
B7: 06E11 (VHH)
VHH: EVQLVESGGGLVQAGGSLRLSCPVSGRAFSRGRLGWFRQAPGKEREFVAVAHWSGAITSYADSVKGRFTFSRDNAKNTMNLQMNSLKPEDTAVYYCAADSETSGNWVYWGQGTQVTVSS
notes: Class 3
B8: 07B11 (VHH)
VHH: EVQLVESGGGLVQAGGSLRLSCVASGRAFSSYVMGWFRQAPGMEREFVALIRWSDGITGYVDSVKGRFTISRDNAKNTVYLQMNSLKPEDTAVYYCAAAVRPGDYDYWGQGTQVTVSS
notes: Class 3
B9: 16A04 (VHH)
VHH: EVQLVESGGGLVQAGGSLRLSCAASGRTFSSYVVGWFRQAPGKEREFIGAISGSGDSIYYAVSEKDRFTISRDNGKNTLYLQMSSLKAEDTAVYYCTADQEFGYLRFGRSEYWGQGTQVTVSS
notes: Class 3; also called IL17MS16A04
B10: 24B08 (VHH)
VHH: EVQLVESGGGLVQAGGSLRLSCAVSGGTFSTYKMGWFRQAPGKEREIVARISTNGPTAYAEFVKGRFTVSRENTKNTVYLQMNSLNIEDTAVYYCAAGYDSLFAGYDYWGQGTQVTVSS
notes: Class 3

Biological target: T8, human IL-17A (human, UniProt Q16552 24-155, biotinylated with Sulfo-NHS-LC-Biotin in the AlphaScreen assays only)
T8 sequence (Q16552 other isoform, or with tags, fused parts or gaps): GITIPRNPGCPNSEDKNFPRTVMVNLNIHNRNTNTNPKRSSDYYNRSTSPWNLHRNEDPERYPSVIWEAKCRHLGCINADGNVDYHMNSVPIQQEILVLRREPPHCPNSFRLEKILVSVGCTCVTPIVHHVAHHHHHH
Assay: cell-based or functional assay

IL-17A-induced IL-6 production in HT-1080 cells, Emax	IL-17A-induced IL-6 production in HT-1080 cells, IC50	Binder
104%	4.3 nM	B1
99.7%	5.1 nM	B2
111%	9.7 nM	B3

Biological target: T9, human IL-17A/F heterodimer (human, UniProt Q16552 24-155; Q96PD4 31-163, limits assumed, biotinylated with Sulfo-NHS-LC-Biotin in the AlphaScreen assays only)
T9 sequence (Q16552 24-155 limits assumed, chain 1 of 2, one chain of several): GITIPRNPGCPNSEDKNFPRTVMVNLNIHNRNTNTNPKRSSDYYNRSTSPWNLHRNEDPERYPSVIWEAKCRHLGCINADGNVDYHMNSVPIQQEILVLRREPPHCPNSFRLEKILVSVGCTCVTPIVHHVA
Assay: cell-based or functional assay

IL-17A/F-induced IL-6 production in HT-1080 cells, Emax	IL-17A/F-induced IL-6 production in HT-1080 cells, IC50	Binder
98.5%	29.2 nM	B1
97%	59.2 nM	B2
68.5%	45.9 nM	B3

Biological target: T1, human IL-17F
Assay: SPR Biacore, hIL-17F on chip; periplasmic extract (*); NB = no binding

binding result	Binder
no binding	B1
no binding	B2
no binding	B3

Biological target: T8, human IL-17A
Assay: AlphaScreen competition, hIL-17A - IL-17RA-Fc;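 note: receptor Fc-fusion plus Acceptor and streptavidin Donor beads incubated with the mixture for 1 h at room temperature before reading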
Protocol: (§1) To this mixture, the IL-17RA or IL-17RC Fc-fusions, Acceptor beads and the streptavidin Donor beads were added and further incubated for 1 hour at RT.

IC50	Binder
0.115 nM	B1
0.068 nM	B2
0.099 nM	B3

Biological target: T2, human IL-17D
Assay: SPR, cytokine on chip
Description: (§2) Human IL-17B, IL-17C, IL-17D or IL-17E were all expressed in E. coli, and covalently bound to a CM sensor chip surface via amine coupling using EDC/NHS for activation and HCl for deactivation.
(§3) Next, binding buffer was sent over the chip at the same flow rate to allow spontaneous dissociation of bound Nanobody or antibody.

binding result	Binder
no binding	B4
no binding	B5
no binding	B6
no binding	B7
no binding	B8
no binding	B9

Biological target: T3, human IL-17E
Assay: SPR, cytokine on chip
Description: as §2, §3

binding result	Binder
no binding	B4
no binding	B5
no binding	B6
no binding	B7
no binding	B8
no binding	B9

Biological target: T4, human IL-17C
Assay: SPR, cytokine on chip
Description: as §2, §3

binding result	Binder
no binding	B4
no binding	B5
no binding	B6
no binding	B7
no binding	B8
no binding	B9

Biological target: T5, human IL-17B
Assay: SPR, cytokine on chip
Description: as §2, §3

binding result	Binder
no binding	B4
no binding	B5
no binding	B6
no binding	B7
no binding	B8
no binding	B9

Biological target: T9, human IL-17A/F heterodimer
Assay: AlphaScreen competition, hIL-17A/F - IL-17RA-Fc
Protocol: as §1

IC50	Binder
0.199 nM	B1
0.095 nM	B2
3.98 nM	B3

Biological target: T8, human IL-17A
Assay: SPR Biacore, hIL-17A on chip; purified protein

koff	Binder
0.00022 s⁻¹	B1
0.0004 s⁻¹	B2
0.00063 s⁻¹	B3

Biological target: T9, human IL-17A/F heterodimer
Assay: AlphaScreen competition, hIL-17A/F - IL-17RC-Fc
Protocol: as §1

IC50	Binder
0.248 nM	B1
0.052 nM	B2
3.15 nM	B3

Biological target: T6, mouse IL-17F
Assay: binding ELISA
Protocol: (§4) Binding of a selected panel of anti-IL-17 Nanobodies to IL-17 of other species was assessed using a binding ELISA. […] HRP (horseradish peroxidase) conjugated anti-myc (Serotec, MCA 2200P) was used for detection using esTMB as substrate.

binding result	Binder
no binding (tested: 250 nM)	B10
no binding (tested: 250 nM)	B4
no binding (tested: 250 nM)	B5
no binding (tested: 250 nM)	B6
no binding (tested: 250 nM)	B7
no binding (tested: 250 nM)	B8
no binding (tested: 250 nM)	B9

Biological target: T7, rat IL-17F
Assay: binding ELISA
Protocol: as §4

binding result	Binder
no binding (tested: 250 nM)	B10
no binding (tested: 250 nM)	B4
no binding (tested: 250 nM)	B5
no binding (tested: 250 nM)	B6
no binding (tested: 250 nM)	B7
no binding (tested: 250 nM)	B8
no binding (tested: 250 nM)	B9

Biological target: T9, human IL-17A/F heterodimer
Assay: SPR Biacore, hIL-17A/F on chip; purified protein

koff	Binder
0.00028 s⁻¹	B1
0.0005 s⁻¹	B2
0.0081 s⁻¹	B3

Biological target: T8, human IL-17A
Assay: AlphaScreen competition, hIL-17A - IL-17RC-Fc;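 note: Read-out after 1 h at room temperature with the receptor Fc-fusion, Acceptor beads and streptavidin-coated Donor beads present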
Protocol: as §1

IC50	Binder
0.381 nM	B1
0.366 nM	B2
0.468 nM	B3
